Test results taken from the DeepSol protein solubility set.

Assay: soluble on expression in E. coli; label from the status in PepcDB or PDB records
In the case of “MGSDKIHHHHHHVPPLRLAIVGDIHDQWTLADQQLLLQLQPDLTLFVGDFGNESLALVQAIAAIPLRKAVILGNHDAWYTATRWRRSQCPYDWMRENRFEQQLEALGGLHIGYGRLDFPEWNLSVVGGRPCSAGGSQWQHRRFYRHYYQVGSFPESAQRIADCAIASPCDRVLFLAHCGPSGLGDQPEDPCGKDWSRPGGDFGDPDLAMAIAQVQAQKVVPLVCFGHMHHRLRHRRDRPRRSWHRDTAGTVYLNAAASPRILKAQQTTLHHLLWVELSDSLVTAQQTWWTPAGVLVQSEELPLVPQPA”, the “soluble on expression in E. coli” value is reported as “not soluble”. In the case of “MGSDKIHHHHHHVPRVRTVKEDHRAGVWCARGMTGLLRRLHAVLDEFNAAYPWDHNAYYHRWILRQLPPRFGRALDAGSGSGDLARLLAGRADRVCGIDIDPVITARARELTDPAAPVVFTVGDVLTDTPAGPYDVVTCVAAVHHMPLAEALTCFRDLLAPGGTLVVVGLYRAHDPIDVLLDGVSVVLNPLIGWVRHRGRRAPRPVSMTAVTTPATMTFAEIVAEARRVLPRARLRRRLLWRYTLVWRKP”, the “soluble on expression in E. coli” value is reported as “not soluble”. For “MGSDKIHHHHHHVRIESIRTKNFKILKDTTIRNIPAMAIFLGANGSGKSTFFDIFGFLHDCLTDNVRAALLKRGGFKEVVSRGQSGPIEFEIKFRSAPGEPLVTYELHINLDDKGLPIVSKELLKYRRGQKGRPWHFLDFSNGVGHAIVNESEYGKPGVQEAREQQTLDSPDILAIKGLGQFQKYKQIASFRRLIEGWHVSDFRIESARSTNDAGYAEHLSATGDNLALVTQFMHEHYSDRFQQVLEKIAQRVPGIKSVEAKETADGRIVLRFQNEEFKDPFISRYVSDGTLKMFAYLILLYDPTPHPLLCIEEPENQLHPDLLLELAEEFRAYASNGGQVFISTHSPDFVNAVQLEELFWLCQGNNGFSKVVRASDEPLLQSLVAEGDLPGSLWKQGFFEGAGPL”, the “soluble on expression in E. coli” value was “not soluble”. In the case of “MGSDKIHHHHHHVSTSVTKRPLTLVLASPRGFCAGVDRAIHIVERALEKYGAPVYVRHEIVHNRFVVESLAQKGAVFVEELDEVPDEAAVVFSAHGVPKTVPAEADRRGLTSLDATCPLVTKVHREAELHHAMGRQIIMIGHAGHPEVIGTIGQVPDGTVLLVGTPEEAEKVAPKNASMLAYITQTTLSVDDAAAVTEVLQRRFPEIVGPKREDICYATTNRQAAVKTIAPKCEALMVIGSPNSSNSSRLVEVAARAGCARSVLVQRAAEVDWSLLDGVDRLGITAGASAPEILVEEVVAAARERFDVTIEEIRVTTETVTFKLPQALSE”, the “soluble on expression in E. coli” value is reported as “not soluble”. In the case of “MGSDKIHHHHHHVTDHGFSFCAHAEQYAIIGSLSQLETSDNRDCDIRRPALNRCMAEKGTLRPEAAQIFQRLEALGLKQRELAQALGIEENKISKVRAGERQFKGAELLAAYEWLDQREAEAHMPRLSRVAAVGQQVIPATPVEGEVVQIQKLDLSLSMGPGTLIDGYVESELVSFDLGFVRLFTRAASDHLRLVTGIGDSMEPTLKWGDLILIDTTDRMLSKQDGIYWINLYGAAGIKRLRAIGPRTILVKSDNPGVDDQEVEAEDLRIEGRAIWATRGL”, the “soluble on expression in E. coli” value is reported as “not soluble”. With “MGSDKIHHHHHHVTRVAVVGDSLSAYAVAAVLTKLGYNCDLLCYPTKSNFYGPSLVLNDVSETLLSELFPDVNLGVDSQRLTHRWVCWGTQPVQIEQPALAIRSNSLLELLRNSKVMQHTRMIDASQLTAQQISQKYAWTVYTKHKQRGMPTLGEPCLQNAARSLLPRSRSVPQGSGTPTAGVAIALSESSQSLIGGQRVIVTAEVQDTPKSAYTCYMESLAEGWLFYAPVNGSGAMVQACLPITPANPRRALLECLYKSTTISTFVNDLQKVNCFFSAPYLEWPLCGLGWLMVGEPAIKIDPVSGEGTPFALRSAILAGAVIDAILSDRIPDISALNHYQTRLTHSFISHLRGCIQFYREVFSTNLAWQAEINQMIDIAETLSTQLEQQAVNVLNYRLIDFELHIG” the “soluble on expression in E. coli” value was “not soluble”. For “MGSDKIHHHHHHVTTIRFLNGLNTIGGNIVEFATKTSRVIMDFGVAADLSNETVSSAIDNGKLPHVPELFFDQPDVYTHEAIFISHLHIDHMGALQYLKKPIPIYLSEPSYKLYQLLIKLGIEKPVANLHPLAYEQPLTIGDLTVTGFHSDHDEPGVMALLVDDGSRRYAHSGDVRLNGPHAKRVHAWAKRFNQEKLSLFMLEGTSFSFDTAAPVEDQDHPSIPLTEMSLQKQFQTVLAESPTLVVINPYIRNYERLASFQASAHTAGRQLVWEPDDAAVLTTMTDQKPDAILGQTISLTDIARDPQHYVLQNSFDHLERLTDMPITTYIHSNGEPLGDYDPRFAQLKDWLEAHHIPLQFMNASGHASREDLITLAKEVNPRTIVPWHSFHPEREAEALDTQTNAAVVLPERDLYYDFDELSEDE”, the “soluble on expression in E. coli” value was “not soluble”. For “MGSDKIHHHHHHVVEQSLSVRNGIRHIVWDWNGTLLDDNHANLAAANHVCEMFGVPPMTLEDWRKIFRRPLVPFYEELLGRPLSDEEWQRLDAAYNSYYQRLLPSCRLADGAVDTLHQWRRAGGTQSLLSMAAHDHLVPVITEFGLVSHFTRVDGRQRTTDADSKAEYLAAHLDAQGIDPATVVLIGDIDDDAHAARMVGAKAVLVATGLMSRERLEATGHPVADSLTEAVQLVHG”, the “soluble on expression in E. coli” value was “not soluble”. With “MGSDKIHHHHHHVVIGFFKKLFNVRDRNEQAKFTGITTAEKRQQTKPQTPVPAIEVTEHQAVESQLDLSALFYSLLFATPSTTTTGIANNLERSVMQNIEQALSSPQSIAENVLKLPSKILELDKKLGDDNIETQELILLIEQDPLLCVEVLKLCNSPAFKRADTDVSSIQQALVQVGRQQLRQFITACLARELIDIKPIYFRRFGAEIWRHSMQVAFLASELASNEQRDSAFLLGLLHDVGKIAIFKMLVDAFYQAEPGEQPNSILFKQVMTTKSLTLSALLARSWQLSQHFETPLTLLANTNIKPTDGMTLLIWKANIISECSMLLQVDKLPQPALAVLLAQVECSEEDFIELHQKLIQF” the “soluble on expression in E. coli” value was “not soluble”. With “MGSDKIHHHHHHVYKALFFDVDDTLLNFEQCSREALGKTFRHFSMDYDDTVYELFRSIDQRLWLQQKQGELTVQDVINLRFQELFKQLQLGCSHIPLQTMFQERLAEEFFTEPHAAESLGYLSARYQLFVTSNGILKTQLKRLELAGLLPYFTDVFVSDHIGHEKPSVRFFEECLQRSRLKPSEVLLIGDSLEADMVGAQTSKMDSCWYNPKHRNTDSDVEIDYIISDLLQLKDILQ” the “soluble on expression in E. coli” value was “not soluble”. With “MGSDKIHHHHHHYRPLFDKDLSNADYDSSVWTFKNGILTATADQSIWTKVQYENFILDLEFKTDVNTNSGVVIYCTDKGNWIPSSIEIQIADDHHPEWQSYPEYWRCGSIYGHKGANEQLVVKKPGEWNRMIITAKGQQIDIELNGKHIVSANLADWTSGTTNPDGTEIPEWLPIPYANMPTKGYIGLQGKHGESNIWFRNIQLKQL” the “soluble on expression in E. coli” value was “not soluble”. For “MGSKRRFSSEHPDPVETSIPEQAAEIAEELSKQHPLPSEEPLVHHDAGEFKGLQRHHTSAEEAQKLEDGKINPFTGREFTPKYVDILKIRRELPVHAQRDEFLKLYQNNQIMVFVGETGSGKTTQIPQFVLFDEMPHLENTQVACTQPRRVAAMSVAQRVAEEMDVKLGEEVGYSIRFENKTSNKTILKYMTDGMLLREAMEDHDLSRYSCIILDEAHERTLATDILMGLLKQVVKRRPDLKIIIMSATLDAEKFQRYFNDAPLLAVPGRTYPVELYYTPEFQRDYLDSAIRTVLQIHATEEAGDILLFLTGEDEIEDAVRKISLEGDQLVREEGCGPLSVYPLYGSLPPHQQQRIFEPAPESHNGRPGRKVVISTNIAETSLTIDGIVYVVDPGFSKQKVYNPRIRVESLLVSPISKASAQQRAGRAGRTRPGKCFRLYTEEAFQKELIEQSYPEILRSNLSSTVLELKKLGIDDLVHFDFMDPPAPETMMRALEELNYLACLDDEGNLTPLGRLASQFPLDPMLAVMLIGSFEFQCSQEILTIVAMLSVPNVFIRPTKDKKRADDAKNIFAHPDGDHITLLNVYHAFKSDEAYEYGIHKWCRDHYLNYRSLSAADNIRSQLERLMNRYNLELNTTDYESPKYFDNIRKALASGFFMQVAKKRSGAKGYITVKDNQDVLIHPSTVLGHDAEWVIYNEFVLTSKNYIRTVTSVRPEWLIEIAPAYYDLSNFQKGDVKLSLERIKEKVDRLNELKQGKNKKKSKHSKKHHHHHH”, the “soluble on expression in E. coli” value was “soluble”. In the case of “MGSKTKKSFTVLLAFIMSFSVTGCFDKREIDDLVNPIAIGFDKGSNHSVRMTLQIAIPTKVAGGGEGGGGGGGEESVSYTTVEAPSIYSGLNMINSYVSKQLNMSQIKVLVFSEELAREGIEKYINALMRGREFRPHSYVIVARGTGNAAERYLRAVEPELESNPAKYYEMLLSAYTYTGFTANTSLTNFYKNMVSESTQPLAVLADISKFEKSDDINMDNSSYQEKGREFPLEGDFKAGDMPKVGTIKSEVMGLAVFNGSKMVGELDGEETQLQLMLEGNFGYSYVTIPDPEAEDYVVLLNIKQNRKPKRKVEIVDEKPHIKVNIYLEADILSIQSGVNYESLEKVKILEDAAEKFFEKGFLRMLKKTAKEFKSDIAGFGKEMKGKFLTWDEWTNFNWIEKYPDSEFEVDVDLKIRRPGLMLRTYPAAGTEVGEE”, the “soluble on expression in E. coli” value is reported as “soluble”. In the case of “MGSRDDEYDYLFKVVLIGDSGVGKSNLLSRFTRNEFNLESKSTIGVEFATRSISVEGKTVKAQIWDTAGQERYRAITSAYYRGAVGALLVYDIAKHVTYENVERWLKELRDHADQNIVIMLVGNKSDLRHLRAVPTDEAKIYAERNQLSFIETSALDSTNVEAAFTNILTEIYKSVSNKHVGTDRQGYGGGSGTIIPSPASDPPKKQCCIP”, the “soluble on expression in E. coli” value is reported as “not soluble”. In the case of “MGSRENLYFQGLEHHHHHHHMKNVKTLIAAAILSSMSFASFAAVEVQSTPEGQQKVGTISANAGTNLGSLEEQLAQKADEMGAKSFRITSVTGPNTLHGTAVIYK”, the “soluble on expression in E. coli” value is reported as “soluble”. For “MGSRNIVRAVLEEKKTEAITEVDEKGITCVMKFGGSSVASAERMKEVADLILTFPEESPVIVLSAMGKTTNNLLLAGEKAVSCGVSNASEIEELSIIKELHIRTVKELNIDPSVILTYLEELEQLLKGIAMMKELTLRTRDYLVSFGECLSTRIFAAYLNTIGVKARQYDAFEIGFITTDDFTNGDILEATYPAVAKRLYDDWMHDPAVPIVTGFLGKGWKTGAVTTLGRGGSDLTATTIGKALGLKEIQVWKDVDGVLTCDPTIYKRATPVPYLTFDEAAELAYFGAQVLHPQSMRPAREGEIPVRVKNSYNPKAPGTIITKTRDMTKSILTSIVLKRNVTMLDIASTRMLGQVGFLAKVFSIFEELGISVDVVATSEVSISLTLDPSKLWSRELIQQELDHVVEELEKIAVVNLLKGRAIISLIGNVQHSSLILERAFHVLYTKGVNVQMISQGASKVNISFIVNEAEAEGCVQALHKSFFESGDLSELLIQPRLGNGSPVRTLQVEN”, the “soluble on expression in E. coli” value was “soluble”. In the case of “MGSSHHHHHHGGFSQSCLPNWIMHGKSCYLFSFSGNSWYGSKRHCSQLGAHLLKIDNSKEFEFIESQTSSHRINAFWIGLSRNQSEGPWFWEDGSAFFPNSFQVRNAVPQESLLHNCVWIHGSEVYNQICNTSSYSICEKEL”, the “soluble on expression in E. coli” value is reported as “soluble”. With “MGSSHHHHHHGGTGENLYFQGGSGGTCPSISQSEVGIVETCGRFSYTADPGIHCLWCGSVLVRRVTLRLQEYELKVESKTKDNVFVTLSLVIQYQVSPDKLAEVYYACDSSLQCMRDYVLNSIRAKIPLYKLEALYVERGTISQQLKDEVDAIIGTYGIEIVSALISDIDPGAEITKAMNEVQKFQRLRVASVDAAETEKLKRVRAAEARCEARRLSGEGLAEQRKAIVAGLMHSIEDVQSEVRDLTSNDATNMLLMNQYYDTLQAIAANSSSSVIMLESNGGLEKVAAQLRQGVTHMMR” the “soluble on expression in E. coli” value was “not soluble”. In the case of “MGSSHHHHHHGGTGENLYFQGGSGLRRTEIALKKGWTHNPGHTRRGGKNLAWRPKISDAKLSQFVPLALVHPRRHPNNWQERQFNALGYTKWPKDIGFYNAGDNFEVTPEAAWRLYVHARDEPYWGKLHCEKTIITLLPVVEKAPKENMERVLDVFRHYLKRYGADHYIYNAVMQAAAFAKNYEQAEQLFKEMETLGLEPNAQSYVNMMLAAKLCGLPPEKSEAYFKRAVKDGAMQSVMRMDTEFRMWMDQLDRLGSFTASSGYLSVNEEGAKPMPRDMWAIWGWHRSESKFISRRDLIMQQVRARVHSGKELVGTVYTKTRRQPWAKFNGMLRHDYNGPSYRAPTIFPDAPEYTNEAGHKAF”, the “soluble on expression in E. coli” value is reported as “soluble”.
